{"source": "patent US20250354149", "about": "“L-RNA APTAMER-ANTISENSE OLIGONUCLEOTIDE CONJUGATES AND USES THEREOF” (CITY UNIVERSITY OF HONG KONG, published 2025)", "binders": {"B1": {"name": "APP rG4 wt region (HEX) (ssRNA)", "RNA": "GGGGCGGGUGGGGAGGGGUGCUCUGCUGGUCUUCAAUU"}}, "key": {"[1]": {"molecular_target": "T1, RHAU53 peptide (DHX36 rG4-binding domain) (synthetic construct, UniProt Q9H2U1 SEQ:1-53)", "T1 sequence": "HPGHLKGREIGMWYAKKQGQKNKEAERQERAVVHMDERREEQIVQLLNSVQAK", "assay": "EMSA; 100 nM RHAU53; binding to APP rG4 region inhibited by L-Apt.4-1c-ASO15nt(APP); data not shown; 37 C, KCl, MgCl2", "settings": "protein: synthetic; tags: none, chemically synthesized by Synpeptide; label: 5' HEX; RNA G-quadruplex with 3' flank", "protocol": "L-Apt.4-1c-ASO15nt_{(APP)} conjugate was serial diluted, and then the conjugate and HEX APP rG4 wt region were firstly refolded by heating at 95° C. for 5 min, 25° C. for 5 min, then 4° C. for at least 30 min separately in buffer containing 150 mM KCl, 1 mM MgCl₂, 25 mM Tris-HCl (pH 7.5) and 8% sucrose separately. 48 nM DHX36 protein (SEQ ID NO: 41) (or 100 nM RHAU53 peptide (SEQ ID NO: 42)), HEX_APP rG4 wt region (SEQ ID NO: 12) and L-Apt.4-1c-ASO15nt_{(APP)} were mixed and incubated for 30 min at 37° C. for competition binding. Then, the samples were loaded and resolved in 6% (37.5:1, acrylamide/bis-acrylamide) native gel for 70min at 35 mA at 4° C. in the running buffer containing 50 mM KOAc, 25 mM Tris-HCl (pH 7.5), 1 mM MgCl₂ (for DHX36) or running at 12.5 mA for 75 min in buffer containing 0.5×TBE and 40 mM KOAc (for RHAU53). At last, gels were scanned using Typhoon laser-scanner platform (Cytiva). Gel pictures were analyzed by image J software."}, "DHX36": {"molecular_target": "T2, DHX36 (Homo sapiens, UniProt Q9H2U1 SEQ:1-1008)", "T2 chain": "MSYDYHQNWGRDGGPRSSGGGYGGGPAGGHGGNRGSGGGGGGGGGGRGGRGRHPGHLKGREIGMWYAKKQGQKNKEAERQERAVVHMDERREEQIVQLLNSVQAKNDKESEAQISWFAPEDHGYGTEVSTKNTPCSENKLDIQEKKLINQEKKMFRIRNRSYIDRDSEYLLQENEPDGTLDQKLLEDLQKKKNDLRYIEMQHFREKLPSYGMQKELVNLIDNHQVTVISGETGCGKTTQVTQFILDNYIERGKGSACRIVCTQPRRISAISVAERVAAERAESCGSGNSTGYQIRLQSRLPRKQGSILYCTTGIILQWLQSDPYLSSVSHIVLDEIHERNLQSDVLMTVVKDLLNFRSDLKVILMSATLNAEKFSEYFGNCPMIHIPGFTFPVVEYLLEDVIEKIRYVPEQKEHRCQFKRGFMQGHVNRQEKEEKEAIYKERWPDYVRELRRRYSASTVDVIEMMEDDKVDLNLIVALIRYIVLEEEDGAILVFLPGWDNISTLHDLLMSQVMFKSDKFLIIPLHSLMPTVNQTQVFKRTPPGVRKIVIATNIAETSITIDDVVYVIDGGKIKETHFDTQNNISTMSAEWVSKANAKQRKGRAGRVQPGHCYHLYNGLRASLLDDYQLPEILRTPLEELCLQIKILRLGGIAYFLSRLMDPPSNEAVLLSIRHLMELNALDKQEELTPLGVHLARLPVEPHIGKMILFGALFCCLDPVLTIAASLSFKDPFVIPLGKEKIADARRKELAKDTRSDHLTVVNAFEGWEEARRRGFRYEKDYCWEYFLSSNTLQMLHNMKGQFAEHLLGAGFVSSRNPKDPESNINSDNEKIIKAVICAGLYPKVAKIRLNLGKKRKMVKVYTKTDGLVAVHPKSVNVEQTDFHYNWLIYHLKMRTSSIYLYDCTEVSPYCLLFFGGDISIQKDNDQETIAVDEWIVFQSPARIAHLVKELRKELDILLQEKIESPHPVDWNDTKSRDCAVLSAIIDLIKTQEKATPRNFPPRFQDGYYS", "assay": "EMSA; strong gel shift bands with DHX36; data not shown; exact label of the oligo not stated", "settings": "label: 5' HEX; RNA G-quadruplex with 3' flank"}}}
{"binder": "B1", "values": [{"measurement": "binding result", "setting": "[1]", "result": "binds"}, {"measurement": "binding result", "setting": "DHX36", "result": "binds"}]}
